Source: IntAct's records for PubMed 15208391

B1: Cullin-1 (Arabidopsis thaliana (Mouse-ear cress)), Q94AH6 (parent)
chain: MERKTIDLEQGWDYMQTGITKLKRILEGLNEPAFDSEQYMMLYTTIYNMCTQKPPHDYSQQLYDKYREAFEEYINSTVLPALREKHDEFMLRELFKRWSNHKVMVRWLSRFFYYLDRYFIARRSLPPLNEVGLTCFRDLVYNELHSKVKQAVIALVDKEREGEQIDRALLKNVLDIYVEIGMGQMERYEEDFESFMLQDTSSYYSRKASSWIQEDSCPDYMLKSEECLKKERERVAHYLHSSSEPKLVEKVQHELLVVFASQLLEKEHSGCRALLRDDKVDDLSRMYRLYHKILRGLEPVANIFKQHVTAEGNALVQQAEDTATNQVANTASVQEQVLIRKVIELHDKYMVYVTECFQNHTLFHKALKEAFEIFCNKTVAGSSSAELLATFCDNILKKGGSEKLSDEAIEDTLEKVVKLLAYISDKDLFAEFYRKKLARRLLFDRSANDDHERSILTKLKQQCGGQFTSKMEGMVTDLTLARENQNSFEDYLGSNPAANPGIDLTVTVLTTGFWPSYKSFDINLPSEMIKCVEVFKGFYETKTKHRKLTWIYSLGTCHINGKFDQKAIELIVSTYQAAVLLLFNTTDKLSYTEILAQLNLSHEDLVRLLHSLSCAKYKILLKEPNTKTVSQNDAFEFNSKFTDRMRRIKIPLPPVDERKKVVEDVDKDRRYAIDAAIVRIMKSRKVLGHQQLVSECVEQLSRMFKPDIKAIKKRMEDLITRDYLERDKENPNMFRYLA
partner: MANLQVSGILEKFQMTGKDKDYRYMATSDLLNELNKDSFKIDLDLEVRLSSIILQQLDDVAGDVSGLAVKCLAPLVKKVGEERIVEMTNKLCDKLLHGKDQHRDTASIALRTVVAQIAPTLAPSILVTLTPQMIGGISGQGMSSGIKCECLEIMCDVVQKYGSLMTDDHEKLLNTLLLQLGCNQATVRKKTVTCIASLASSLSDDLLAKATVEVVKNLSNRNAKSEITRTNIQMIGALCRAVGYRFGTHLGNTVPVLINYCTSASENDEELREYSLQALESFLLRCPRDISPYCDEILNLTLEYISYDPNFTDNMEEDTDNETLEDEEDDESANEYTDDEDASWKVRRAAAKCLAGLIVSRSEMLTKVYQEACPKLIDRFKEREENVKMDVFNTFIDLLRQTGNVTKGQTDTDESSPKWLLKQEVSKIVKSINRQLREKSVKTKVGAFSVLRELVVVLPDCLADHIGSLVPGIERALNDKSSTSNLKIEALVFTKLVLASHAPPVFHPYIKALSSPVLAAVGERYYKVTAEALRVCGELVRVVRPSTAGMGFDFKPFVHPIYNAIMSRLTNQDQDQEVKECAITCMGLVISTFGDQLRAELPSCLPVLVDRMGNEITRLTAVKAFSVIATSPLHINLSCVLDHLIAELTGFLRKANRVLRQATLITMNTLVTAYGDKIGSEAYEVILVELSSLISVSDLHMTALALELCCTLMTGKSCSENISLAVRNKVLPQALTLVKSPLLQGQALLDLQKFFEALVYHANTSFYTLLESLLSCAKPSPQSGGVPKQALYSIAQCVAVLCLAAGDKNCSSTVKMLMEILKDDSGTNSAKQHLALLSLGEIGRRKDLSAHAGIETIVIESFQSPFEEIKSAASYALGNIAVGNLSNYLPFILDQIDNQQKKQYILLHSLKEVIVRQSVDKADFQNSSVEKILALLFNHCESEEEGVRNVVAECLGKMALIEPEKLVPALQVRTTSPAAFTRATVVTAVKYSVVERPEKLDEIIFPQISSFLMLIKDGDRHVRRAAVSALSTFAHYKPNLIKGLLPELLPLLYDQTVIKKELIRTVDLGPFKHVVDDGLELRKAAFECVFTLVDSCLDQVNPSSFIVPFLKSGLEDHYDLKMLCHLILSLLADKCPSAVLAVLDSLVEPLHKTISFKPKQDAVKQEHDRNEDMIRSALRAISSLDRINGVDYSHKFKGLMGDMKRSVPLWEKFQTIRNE

Variants of: B1
Settings: with cand1_arath CAND1, Q8L5Y6

Variant	effect of a mutation on the interaction
K682R	increasing interaction strength
